Measured values reported in US8546535 (ESPERANCE PHARMACEUTICALS, dated 2013).
Several values for one entry are separate records, joined by “and”; a condition that tells them apart may be missing. Equal entries are not always repeated.

T1: luteinizing hormone-releasing hormone (LHRH) receptor (human, UniProt P30968 1-328)
T1 sequence (looked up): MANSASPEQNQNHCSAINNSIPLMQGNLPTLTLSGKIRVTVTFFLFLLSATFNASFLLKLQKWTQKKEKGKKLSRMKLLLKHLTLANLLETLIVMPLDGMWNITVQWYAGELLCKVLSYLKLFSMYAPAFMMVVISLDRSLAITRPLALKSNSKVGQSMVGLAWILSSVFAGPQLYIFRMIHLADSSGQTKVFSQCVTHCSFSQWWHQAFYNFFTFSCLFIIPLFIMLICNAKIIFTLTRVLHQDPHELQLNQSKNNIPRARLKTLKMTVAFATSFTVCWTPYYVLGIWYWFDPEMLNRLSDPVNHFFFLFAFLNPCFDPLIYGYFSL


Assays:
[1] = molecular target: luteinizing hormone-releasing hormone (LHRH) receptor (human) (UniProt P30968); experiment: cell-based or functional assay
[2] = molecular target: T1, luteinizing hormone-releasing hormone …; experiment: cell-based or functional assay

Molecule | IC50, cytotoxicity in TM4 cells (no LHRH receptors; receptor-negative control) [1] [µM] | IC50, cytotoxicity (MTT) in MCF-7 cells [2] | IC50, cytotoxicity (MTT) in MDA-MB-435S cells, 0.5 hour incubation [2] [µM] | IC50, cytotoxicity (MTT) in MDA-MB-435S cells, 1 hour incubation [2] [µM] | IC50, cytotoxicity (MTT) in OVCAR-3 cells, increasing incubation time (1st of 7 values) [2] [µM] | IC50, cytotoxicity (MTT) in OVCAR-3 cells, increasing incubation time (2nd of 7 values) [2] [µM] | IC50, cytotoxicity (MTT) in OVCAR-3 cells, increasing incubation time (3rd of 7 values) [2] [µM] | IC50, cytotoxicity (MTT) in OVCAR-3 cells, increasing incubation time (4th of 7 values) [2] [µM] | IC50, cytotoxicity (MTT) in OVCAR-3 cells, increasing incubation time (5th of 7 values) [2] [µM] | IC50, cytotoxicity (MTT) in OVCAR-3 cells, increasing incubation time (6th of 7 values) [2] [µM] | IC50, cytotoxicity (MTT) in OVCAR-3 cells, increasing incubation time (7th of 7 values) [2] [µM] | IC50, cytotoxicity (MTT) in SKOV-3 cells, 24 hours incubation (cells without functional LHRH receptors; receptor-negative control) [2] [µM]
LHRH-Phor21 (peptide) | 10.9 |  |  |  |  |  |  |  |  |  |  | 
KFAKFAKKFAKFAKKFAKQHWSYGLRPG [Phor18-LHRH (338613)] |  | 3.4 µM and 1.8 µM | 1.2 | 0.6 | 6.7 | 5.6 | 5.3 | 1.6 | 1.5 | 0.5 | 0.5 | 11.5
